These results are taken from patent US20260062463A1 (KANGYUAN BIOMEDICAL TECH DALIAN, published 2026).

First the molecules themselves.
B1: A4-D7 (bispecific antibody)
chain: VQLQESGGGLVQTGGSLRLSCAASGRAFSLNTMGWYRQAPGKWRELVATVTRGGSTNYAGSVKGRFTISRDNAKNTVYLQMNNLRPEDTAVYYCHVDEVRESSWTTSNLWGQGTQVTVSSGGGGSGGGGSGGGGSVQLQESGGGLVQPGGSLRLSCAASGSIFTINSMGWYRQAPGKWRELVATVTRGGNTNYANSVKGRFTISRDNAKNTVYLQMNTLRPEDTAVYYCHLDEVRDSSWTTSNLWGQGTQVTVSSGGGGSGGGGSGGGGSVQLQESGGGLVQPGGSLRLSCAASGSIFSINSMGWYRQAPGKWRELVATVTRGGSTNYANSVKGRFTISRDNAKNTVYLQMNTLRPEDTAVYYCHLDEVRDSSWTTSNLWGQGTQVTVSSGGGGSGGGGSGGGGSVQLQESGGGLVQTGGSLRLSCAASGRAFSLNTMGWYRQAPGKWRELVATVTRGGSTNYAGSVKGRFTISRDNAKNTVYLQMNNLRPEDTAVYYCHVDEVRESSWTTSNLWGQGTQVTVSS
B2: A4-D8 (bispecific antibody)
chain: VQLQESGGGLVQPGGSLRLSCAASGSRFSLNTMGWYRQAPGKQRELVATVTRGGSTNYADSVKGRFTISRDNAKNTVYLQMNSLRPEDTAVYYCHVDELRESGWTTSNLWGQGTQVTVSSGGGGSGGGGSGGGGSVQLQESGGGLVQPGGSLRLSCAASGSRFSLNTMGWYRQAPGKQRELVATVTRGGSTNYADFVKGRFTISRDNAKNTVYLQMNSLRPEDTAVYYCHVDELRESGWTTSNLWGQGTQVTVSSGGGGSGGGGSGGGGSVQLQESGGGLVHSGGSLRLSCAASGSMFSLNTMGWYRQAPGKQRELVATITRGGGTSYADSVKGRFTISRDNAKNTVYLQMNSLRPEDTAVYYCHVDELRQSSWTTSNLWGQGTQVTVSSGGGGSGGGGSGGGGSVQLQESGGGLVQPGGSLRLSCAASGSRFSLNTMGWYRQAPGKQRELVATVTRGGSTNYADFVKGRFTISRDNAKNTVYLQMNSLRPEDTAVYYCHVDELRESGWTTSNLWGQGTQVTVSS
B3: A4-D6 (bispecific antibody)
chain: VQLQESGGGLVQTGGSLRLSCAASGRAFSLNTMGWYRQAPGKWRELVATVTRGGSTNYAGSVKGRFTISRDNAKNTVYLQMNNLRPEDTAVYYCHVDEVRESSWTTSNLWGQGTQVTVSSGGGGSGGGGSGGGGSVQLQESGGGLVQTGGSLRLSCAASGRAFSLNTMGWYRQAPGKWRELVATVTRGGSTNYAGSVKGRFTISRDNAKNTVYLQMNNLRPEDTAVYYCHVDEVRESSWTTSNLWGQGTQVTVSSGGGGSGGGGSGGGGSVQLQESGGGLVQPGGSLRLSCAASGSIFTINSMGWYRQAPGKWRELVATVTRGGNTNYANSVKGRFTISRDNAKNTVYLQMNTLRPEDTAVYYCHLDEVRDSSWTTSNLWGQGTQVTVSSGGGGSGGGGSGGGGSVQLQESGGGLVQPGGSLRLSCAASGSIFSINSMGWYRQAPGKWRELVATVTRGGSTNYANSVKGRFTISRDNAKNTVYLQMNTLRPEDTAVYYCHLDEVRDSSWTTSNLWGQGTQVTVSS
B4: A4-D11 (other)
chain: VQLQESGGGLVQPGGSLRLSCAASGRGFSINTMGWYRQAPGKQRELVAAVTRGGTTNYADSVKGRFTISRDNAKNTVYLQMNSLRPEDTAVYYCHVDEVRQSSWTTSNLWGQGTQVTVSSGGGGSGGGGSGGGGSVQLQESGGGLVQPGGSLRLSCAASGSIFSINTMGWYRQAPGKQRELVAAVTRGGSTNYADSVKGRFTISRDNAKNTVYLQMNSLRPEDTAVYYCHVDEVRQSSWTTSNLWGQGTQVTVSSGGGGSGGGGSGGGGSVQLQESGGGLVQPGGSLRLSCAASGSIFIINTMGWYRRAPGKQRELVAAVTRGGSTNYADSVKGRFTISRDNAKNTVYLQMNSLRPEDTAVYYCHVDEVRQSSWTTSNLWGQGTQVTVSSGGGGSGGGGSGGGGSVQLQESGGGLVQPGGSLRLSCAASGSSFVINTMGWYRQAPGKQRELVAAVTRGGSTNYADSVKGRFTISRDNAKNTVYLQMNSLRPEDTAVYYCHVDEVRQSSWTTSNLWGQGTQVTVSS
B5: A4-D9 (bispecific antibody)
chain: VQLQESGGGLVHSGGSLRLSCAASGSMFSLNTMGWYRQAPGKQRELVATITRGGGTSYADSVKGRFTISRDNAKNTVYLQMNSLRPEDTAVYYCHVDELRQSSWTTSNLWGQGTQVTVSSGGGGSGGGGSGGGGSVQLQESGGGLVQPGGSLRLSCAASGSRFSLNTMGWYRQAPGKQRELVATVTRGGSTNYADFVKGRFTISRDNAKNTVYLQMNSLRPEDTAVYYCHVDELRESGWTTSNLWGQGTQVTVSSGGGGSGGGGSGGGGSVQLQESGGGLVQPGGSLRLSCAASGSRFSLNTMGWYRQAPGKQRELVATVTRGGSTNYADFVKGRFTISRDNAKNTVYLQMNSLRPEDTAVYYCHVDELRESGWTTSNLWGQGTQVTVSSGGGGSGGGGSGGGGSVQLQESGGGLVQTGGSLRLSCAASGRAFSLNTMGWYRQAPGKWRELVATVTRGGSTNYAGSVKGRFTISRDNAKNTVYLQMNNLRPEDTAVYYCHVDEVRESSWTTSNLWGQGTQVTVSS
B6: A4-D1 (VHH)
chain: VQLQESGGGLAQAGGSLRLSCAASGRGFSINTMGWYRQAPGKQRELVAAVTRGGTTNYADSVKGRFTISRDNAKNTVYLQMNSLRPEDTAVYYCHVDEVRQSSWTTSNLWGQGTQVTVSSGGGGSGGGGSGGGGSVQLQESGGGLAQAGGSLRLSCAASGRGFSINTMGWYRQAPGKQRELVAAVTRGGTTNYADSVKGRFTISRDNAKNTVYLQMNSLRPEDTAVYYCHVDEVRQSSWTTSNLWGQGTQVTVSSGGGGSGGGGSGGGGSVQLQESGGGLAQAGGSLRLSCAASGRGFSINTMGWYRQAPGKQRELVAAVTRGGTTNYADSVKGRFTISRDNAKNTVYLQMNSLRPEDTAVYYCHVDEVRQSSWTTSNLWGQGTQVTVSSGGGGSGGGGSGGGGSVQLQESGGGLAQAGGSLRLSCAASGRGFSINTMGWYRQAPGKQRELVAAVTRGGTTNYADSVKGRFTISRDNAKNTVYLQMNSLRPEDTAVYYCHVDEVRQSSWTTSNLWGQGTQVTVSS
B7: A4-D3 (VHH)
chain: VQLQESGGGLAQAGGSLRLSCAASGRGFSINTMGWYRQAPGKQRELVAAVTRGGTTNYADSVKGRFTISRDNAKNTVYLQMNSLRPEDTAVYYCHVDEVRQSSWTTSNLWGQGTQVTVSSGGGGSGGGGSGGGGSVQLQESGGGLAQAGGSLRLSCAASGRGFSINTMGWYRQAPGKQRELVAAVTRGGTTNYADSVKGRFTISRDNAKNTVYLQMNSLRPEDTAVYYCHVDEVRQSSWTTSNLWGQGTQVTVSSGGGGSGGGGSGGGGSVQLQESGGGLAQAGGSLRLSCAASGRGFSINTMGWYRQAPGKQRELVAAVTRGGTTNYADSVKGRFTISRDNAKNTVYLQMNSLRPEDTAVYYCHVDEVRQSSWTTSNLWGQGTQVTVSSGGGGSGGGGSGGGGSVQLQESGGGLVQPGGSLRLSCAASGRGFSINTMGWYRQAPGKQRELVAAVTRGGTTNYADSVKGRFTISRDNAKNTVYLQMNSLRPEDTAVYYCHVDEVRQSSWTTSNLWGQGTQVTVSS

A word on the Kd: it is the equilibrium constant for the complex coming apart. Usually koff stands for a measure of how fast the partners let go of each other. The low end stands for slow dissociation, the high end for fast dissociation. By kon is commonly meant the second-order rate constant of association.

The target of the first assay is T1, AAV8 (adeno-associated virus 8, Assembled 60-mer capsid of VP1/VP2/VP3 (nested products of one cap gene), amine-coupled to a CM5 chip; the letters give one VP1 subunit only.).
T1 construct: also called adeno-associated virus serotype 8
T1 chain: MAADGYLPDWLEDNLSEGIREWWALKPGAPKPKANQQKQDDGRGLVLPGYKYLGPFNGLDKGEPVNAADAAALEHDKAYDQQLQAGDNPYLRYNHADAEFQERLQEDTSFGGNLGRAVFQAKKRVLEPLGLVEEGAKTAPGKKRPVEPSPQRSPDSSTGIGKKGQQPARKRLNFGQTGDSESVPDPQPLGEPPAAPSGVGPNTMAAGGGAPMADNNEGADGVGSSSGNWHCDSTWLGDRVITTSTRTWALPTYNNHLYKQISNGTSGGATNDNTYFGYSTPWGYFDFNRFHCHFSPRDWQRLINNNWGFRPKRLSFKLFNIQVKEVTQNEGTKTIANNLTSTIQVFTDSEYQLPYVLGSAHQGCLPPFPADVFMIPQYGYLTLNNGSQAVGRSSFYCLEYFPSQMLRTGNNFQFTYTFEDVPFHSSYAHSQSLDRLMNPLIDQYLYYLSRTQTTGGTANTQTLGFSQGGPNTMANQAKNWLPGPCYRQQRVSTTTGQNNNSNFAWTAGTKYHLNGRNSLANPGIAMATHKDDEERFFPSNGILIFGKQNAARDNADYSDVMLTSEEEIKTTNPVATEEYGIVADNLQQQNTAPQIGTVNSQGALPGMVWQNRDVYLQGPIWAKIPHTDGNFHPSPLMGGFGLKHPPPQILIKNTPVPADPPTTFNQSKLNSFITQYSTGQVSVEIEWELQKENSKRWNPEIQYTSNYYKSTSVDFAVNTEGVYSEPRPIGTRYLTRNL
The assay is described as follows: SPR, AAV amine-coupled to CM5 chip. On the technique in general: SPR reads the build-up and loss of mass on a sensor chip optically.
Molecule B1 gave a Kd of 1.41 nM, a koff of 1.79e-05 s⁻¹ and a kon of 12700 M⁻¹ s⁻¹.

As for B2, the Kd was determined as 0.228 nM, the koff came out at 1.1e-05 s⁻¹ and the kon came out at 48200 M⁻¹ s⁻¹.

Take B3: the Kd turned out to be 1.02 nM, the koff was 1.63e-05 s⁻¹ and the kon stood at 16000 M⁻¹ s⁻¹.

In turn, B4 displayed a Kd of 0.319 nM, a koff of 1.5e-05 s⁻¹ and a kon of 47000 M⁻¹ s⁻¹.

As for B5, the Kd stood at 0.318 nM, the koff was 9.9e-06 s⁻¹ and the kon was found to be 31100 M⁻¹ s⁻¹.

Another assay deals with T2, AAV5 (adeno-associated virus 5, Assembled 60-mer capsid of VP1/VP2/VP3 (nested products of one cap gene), amine-coupled to a CM5 chip; the letters give one VP1 subunit only.).
T2 construct: also called adeno-associated virus serotype 5
The assay is described as follows: SPR, AAV amine-coupled to CM5 chip.
B6 came in with a Kd of 0.0576 nM, a koff of 2.2e-06 s⁻¹ and a kon of 38200 M⁻¹ s⁻¹.

With B7, the Kd was determined as 0.209 nM, the koff amounted to 3.6e-06 s⁻¹ and the kon stood at 17300 M⁻¹ s⁻¹.
